Experimental data from patent US20250289892A1 (TAIZHOU ENZE MEDICAL CENTER GROUP, published 2025).

Experiments:
[1] = biological target: T1, antigenic peptide of amino acid sequence at positions 106-126 of a heavy chain of HLA-G molecules … (human); experiment: ELISA, peptide coated at 2 ug/ml, antibody stock 3.0 mg/mL titrated
T1 construct: Synthesized peptide, coated on ELISA plates at 2 ug/ml; also called immunogen
T1 peptide: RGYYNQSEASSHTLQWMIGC
Protocol: (§1) The antigen (SEQ No. 17 [sequence]) was diluted with the coating buffer, with the final concentration of 2 μg/ml, 100 ul/well, and placed at 4° C. overnight; washed with the wash buffer twice, blocked with the blocking buffer at 200 ul/well, incubated at 37° C. for 2 hours; then washed once with the wash buffer. The purified antibody was diluted by 2-fold starting from 200-fold (PBS), and the blank control (blank) was PBS, 100 ul/well, and incubated at 37° C. for 1 hour; and then washed 3 times with the wash buffer. The secondary antibody diluted with PBS by 20,000-fold was added, 100 ul/well, and incubated in a 37° C. incubator for 1 hour; taken out and washed 3 times with a wash buffer. Then the color development was performed with a developing solution of 100 ul/well for 5-15 minutes. Then 50 ul of stop solution was added to each well to stop. The absorbance value was measured at dual wavelengths (450, 630), and a chart was drawn for analysis.

[2] = biological target: T1, antigenic peptide of amino acid …; experiment: ELISA, peptide coated at 2 ug/ml, antibody titrated; logistic fit
Protocol: as §1

[3] = biological target: T2, HLA-G7 standard protein (human, UniProt P17693-7 25-116, limits assumed); experiment: immunoblotting of standard proteins after denaturing PAGE
T2 construct: Standard protein run on denaturing PAGE for immunoblotting
Protocol: (§2) The denaturing PAGE electrophoresis of the standard proteins of HLA-G isoforms (HLA-G1, HLA-G2, HLA-G3, HLA-G4, HLA-G5, HLA-G6 and HLA-G7) was performed. After semi-dry electroporating, 5% skimmed milk powder was used to block at room temperature for 4 hours, and washed with 0.2% TBS (Tween-20 PBS).

[4] = biological target: T3, HLA-G2 standard protein (human, UniProt P17693-2 25-246, limits assumed); experiment: as above
T3 construct: Standard protein run on denaturing PAGE for immunoblotting
Protocol: as §2

[5] = biological target: T4, HLA-G3 standard protein (human, UniProt P17693-3 25-154, limits assumed); experiment: as above
T4 construct: Standard protein run on denaturing PAGE for immunoblotting
Protocol: as §2

[6] = biological target: T5, HLA-G6 standard protein (human, UniProt P17693-6 25-227, limits assumed); experiment: as above
T5 construct: Standard protein run on denaturing PAGE for immunoblotting
Protocol: as §2

- antibody dilution factor corresponding to 1/2 OD value [1]: 197000 fold dilution
- Ka [2]: 9.87e+09 M⁻¹
- binding result [3]: no binding
- binding result [4]: no binding
- binding result [5]: no binding
- binding result [6]: no binding
B1: monoclonal antibody (YWHG-4) against HLA-G isoforms (HLA-G1, HLA-G4, HLA-G5) (antibody, V domains shown)
VH: VQLQQSGAEVVRPGTSVKVSCKASGYASTNYLVEWIKQRPGQGLEWIGVINPGSGRIYYSEKFKGKTTLTADKSSSNAYMQLSSLTSDDSAVYFCARHYGNSAWFAYWGQGTLVTVSA
VL: DIVITQDELSLPVSLGDQAAISCRSSQSIVHSNGNTYLEWYLQKPGQSPKLLIYKVSNRFSGVPDRFRGSGSGTDFTLKISRVEAEDLGVYYCFQASHVPYTFGGGTKLEIKR
notes: FITC-labeled in the flow cytometry; also called hybridoma CCTCC NO: 2021204
